Source: patent US20260102487A1 (Amgen, published 2026)

T1: human IL-2Rγ (recombinant protein and on cells) (human, UniProt P31785 23-262, limits assumed)
T1 construct: recombinant protein and of cells together; also called IL2RG; CD132
T1 sequence: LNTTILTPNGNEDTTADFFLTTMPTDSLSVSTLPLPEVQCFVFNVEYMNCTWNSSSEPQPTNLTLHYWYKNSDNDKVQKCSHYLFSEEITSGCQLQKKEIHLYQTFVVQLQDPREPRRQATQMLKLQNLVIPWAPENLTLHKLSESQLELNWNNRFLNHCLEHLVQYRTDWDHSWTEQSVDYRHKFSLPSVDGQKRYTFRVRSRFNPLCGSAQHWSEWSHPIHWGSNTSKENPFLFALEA

T2: cynomolgus IL-2Rγ (recombinant protein and on cells) (cynomolgus, UniProt A0A2K5VGJ6 23-254)
T2 construct: also called cynomolgus IL-2RG
T2 sequence: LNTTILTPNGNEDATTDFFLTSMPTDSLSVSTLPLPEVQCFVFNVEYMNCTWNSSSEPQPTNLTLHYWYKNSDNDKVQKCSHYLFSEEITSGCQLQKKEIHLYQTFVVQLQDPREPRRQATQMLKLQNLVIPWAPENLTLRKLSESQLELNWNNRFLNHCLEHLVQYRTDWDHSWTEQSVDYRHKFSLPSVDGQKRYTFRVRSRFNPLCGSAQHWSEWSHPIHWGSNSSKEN

T3: IL2RB, Human
T3 construct: Same protein as m17, but here as recombinant protein in solution, not on CHO cells; also called human IL-2RB (AcroBiosystems); IL-2Rβ
T3 receptor chain: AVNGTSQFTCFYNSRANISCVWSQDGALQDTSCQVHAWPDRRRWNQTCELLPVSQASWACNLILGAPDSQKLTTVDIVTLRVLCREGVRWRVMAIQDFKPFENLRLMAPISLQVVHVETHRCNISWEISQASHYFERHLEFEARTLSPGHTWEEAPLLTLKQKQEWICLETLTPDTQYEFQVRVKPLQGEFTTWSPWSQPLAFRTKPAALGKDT

T4: IL2RB, Cyno (Macaca fascicularis, UniProt Q38J85)
T4 construct: Same protein as m18, but here as recombinant protein in solution, not on CHO cells; also called cynomolgus IL-2RB (Sino Biological)
T4 sequence (receptor chain, looked up): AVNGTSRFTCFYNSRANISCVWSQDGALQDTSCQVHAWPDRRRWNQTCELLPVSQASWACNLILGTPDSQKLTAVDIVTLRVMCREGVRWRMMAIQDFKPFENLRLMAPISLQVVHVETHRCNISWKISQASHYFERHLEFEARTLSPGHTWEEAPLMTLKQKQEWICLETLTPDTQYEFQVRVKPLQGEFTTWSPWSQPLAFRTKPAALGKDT

B1: BsAb-2 (IL2RB_F09G**IL2RG_F16B) (bispecific antibody, human IgG4, V domains shown)
V domain 1: QVQLQESGPGLVKSSETLSLTCTVSGGSISSSDWWSWVRQPPGKGLEWIGEIDHSGSTNYNPSLMSRVTISVDKSKNQFSLKLSSVTAADTAVYFCARGSWELTDAFDIRGQGTLVTVSS
V domain 2: QVQLVESGGGLVKPGGSLRLSCAASGFTFSDYYMSWIRQAPGKGLEWVSYISSSGSTIYYADSVKGRFTISRDNAKNSLYLQMNSLRAEDTAVYYCARGDAVSITGDYRGQGTLVTVSS
notes: Heavy chain-only bispecific on silenced, stabilised human IgG4 Fc, knobs-into-holes, no light chains; not shown: C-terminal His-tag on the knob chain
B2: BsAb-4 (IL2RB_F09G**IL2RG_F18A) (bispecific antibody, human IgG4, V domains shown)
V domain 1: QVQLQESGPGLVKSSETLSLTCTVSGGSISSSDWWSWVRQPPGKGLEWIGEIDHSGSTNYNPSLMSRVTISVDKSKNQFSLKLSSVTAADTAVYFCARGSWELTDAFDIRGQGTLVTVSS
V domain 2: QVQLVESGGDLVKPGGSLRLSCAASGFTFSDYYMSWLRQAPGKELEWVSHISSSGTTTYYADSVEGRFTITRDNAKNSLYLQMNSLRAEDTAVYYCARGAAVAPGFDSRGQGTLVTVSS
notes: as for B1
B3: BsAb-6 (IL2RB_F18E**IL2RG_F16A) (bispecific antibody, human IgG4, V domains shown)
V domain 1: QVQLVESGGGVVQPGRSLRLSCAASGFTFSSYGMHWVRQAPGKEREWVAVISYDGSNKYYTDSVKGRFTISRDNSKNTLYLEMNSLRAEDTAVYYCARDLDYDVLTGDPVGGFDIWGQGTLVTVSS
V domain 2: QVQLVESGGGLVKPGGSLRLSCAASGFTFSDYYMSWIRQAPGKGLEWVSSISSSGDTIYYADSVQGRFTLSRDNAENSLFLQMNSLRAEDTAVYYCARGDAVSITGDYRGQGTLVTVSS
notes: as for B1
B4: BsAb-1 (IL2RB_F09C**IL2RG_F16A) (bispecific antibody, human IgG4, V domains shown)
V domain 1: QVQLQESGPGLVKPSGTLSLTCAVSGGSISSSDWWSWVRQPPGKGLEWIGEIDHSGSTNYNPSLMSRVTISVDKSKNQFSLKLSSVTAADTAVYFCGRGSWELSDAFDIRGQGTLVTVSS
V domain 2: QVQLVESGGGLVKPGGSLRLSCAASGFTFSDYYMSWIRQAPGKGLEWVSSISSSGDTIYYADSVQGRFTLSRDNAENSLFLQMNSLRAEDTAVYYCARGDAVSITGDYRGQGTLVTVSS
notes: as for B1
B5: BsAb-5 (IL2RB_F09K**IL2RG_F16B) (bispecific antibody, human IgG4, V domains shown)
V domain 1: QVQLQESSPGLVKPSETLSLTCTVSGGSISSSNWWSWVRQPPGKGLEWIGEISHSGSTNYNPSLKSRVTISVDKSKNQFSLRLSSVTAADTAVYFCGRGSWELTDAFDIRGQGTLVTVSS
V domain 2: QVQLVESGGGLVKPGGSLRLSCAASGFTFSDYYMSWIRQAPGKGLEWVSYISSSGSTIYYADSVKGRFTISRDNAKNSLYLQMNSLRAEDTAVYYCARGDAVSITGDYRGQGTLVTVSS
notes: as for B1
B6: BsAb-3 (IL2RB_F09G**IL2RG_F16C) (bispecific antibody, human IgG4, V domains shown)
V domain 1: QVQLQESGPGLVKSSETLSLTCTVSGGSISSSDWWSWVRQPPGKGLEWIGEIDHSGSTNYNPSLMSRVTISVDKSKNQFSLKLSSVTAADTAVYFCARGSWELTDAFDIRGQGTLVTVSS
V domain 2: QVQLVESGGGLVKPGGSLRLSCAASGFTFNDYYMSWIRQAPGKGLEWVSHISSSGSTIYYADSVKGRFTVSRDNANNSLYLQMHSLRAEDTAVYYCARGDAVSITGDYRGQGTLVTVSS
notes: as for B1

Assays:
[1] = target: T1, human IL-2Rγ (recombinant protein and …); assay: biolayer interferometry (Octet Qk384), antibody captured on anti-human Fc (AHC) sensors, antigen 7.8-500 nM in solution, 1:1 fit, KD = kd/ka
Method: (§1) All kinetics measurement experiments were performed on a ForteBio Octet Qk384 instrument using anti-human Fc capture (AHC, 18-5005) sensors. The bispecific heavy chain-only antibodies and antigens were diluted to final concentrations in Kinetics buffer (0.02% Tween20, 0.1% BSA, 0.05% sodium azide, 1X PBS). Kinetics measurements were against the following antigens: human IL-2RB (AcroBiosystems), human TL-2RG (AcroBiosystems), cynomolgus IL-2RB (Sino Biological), cynomolgus IL-2RG (expressed and purified in house using ExpiCHO expression system followed by Ni-NTA his-tag purification). The antibodies were loaded on the AHC sensors at 5 μg/mL for maximum loading. Following a short baseline in Kinetics buffer, the sensors were exposed to a series of analyte concentrations (7.8 nM to 500 nM) for association step and background subtraction was used to correct for sensor drifting. Dissociation was monitored in Kinetics buffer. The capture surfaces were regenerated for 60s. All experiments were performed with shaking at 1000 rpm. ForteBio's data analysis software was used to fit the data to a 1:1 binding model to extract an association rate and dissociation rate. The KD was calculated using the ratio kd/ka.

[2] = target: T2, cynomolgus IL-2Rγ (recombinant protein …); assay: as above
Method: as §1

IL2RB, Human = target: T3, IL2RB, Human; assay: as above
Method: as §1

IL2RB, Cyno = target: T4, IL2RB, Cyno; assay: as above
Method: as §1

[3] = target: T5, cynomolgus IL-2Rβγ receptor on cynomolgus T-cells (PBMCs) (cynomolgus); assay: flow cytometry cell binding on cynomolgus CD8+ T-cells (PBMC), gMFI as fold over secondary antibody only
T5 construct: whole, on cells; Endogenous receptor on primary cynomolgus cells
Method: All washes and dilutions of cells, antibodies, and reagents were performed using flow buffer (1X PBS, 1% BSA, 0.1% NaN3, pH 7.4). Staining was performed in a round-bottom 96-well plate (Corning) seeded at 100,000 cells/well, and all incubations were performed at 4° C. or on ice. […] The cells were washed twice with 200 μL flow buffer. The cells were then incubated for 30 minutes with detection antibody (Goat F(ab′)2 Anti-Human IgG-PE, Southern Biotech) at 0.625 μg/mL in flow buffer. Following 2 more washes, the cells were resuspended in a final volume of 150 μL of flow buffer. The cells were analyzed on a BD FACSCelesta or a Guava easyCyte 8-HT flow cytometer. At least 3000 events were collected, and PE geometric mean fluorescence intensity was plotted as a fold over background (cells incubated with secondary detection antibody only). In some secondary screens involving human or cynomolgus PBMCs, an additional CD4 antibody (BioLegend) and/or CD8 antibody (BioLegend) was included to further characterize cell binding.

| Binder | Kd [1] | Kd [2] | Kd (IL2RB, Human) | Kd (IL2RB, Cyno) | EC50 (read off the curve) [3] |
| --- | --- | --- | --- | --- | --- |
| B1 | 17.1 nM | 50.2 nM | 93.4 nM | 16.7 nM | ~2 nM |
| B2 | 2.93 nM | 5.81 nM | 82.4 nM | 17.3 nM | ~10 nM |
| B3 | 1.88 nM | 5.42 nM | 53.8 nM | 55.2 nM | ~20 nM |
| B4 | 1.79 nM | 4.87 nM | 18.5 nM | 10.7 nM | ~20 nM |
| B5 | 20.1 nM | 41.5 nM | 182 nM | 16.5 nM | ~4 nM |
| B6 | 1.43 nM | 3.58 nM | 96.7 nM | 16 nM | ~10 nM |
